Here are results for two molecules from patent US20200405879A1 (published 2020).

The target of one test is CD22 (human, UniProt P20273 20-847). Nature of the test: cell-based or functional assay. Further details: unit not given beside the values.
For a further test, the target named is T1, CD19 (human, UniProt P15391 20-556).
T1 sequence (looked up): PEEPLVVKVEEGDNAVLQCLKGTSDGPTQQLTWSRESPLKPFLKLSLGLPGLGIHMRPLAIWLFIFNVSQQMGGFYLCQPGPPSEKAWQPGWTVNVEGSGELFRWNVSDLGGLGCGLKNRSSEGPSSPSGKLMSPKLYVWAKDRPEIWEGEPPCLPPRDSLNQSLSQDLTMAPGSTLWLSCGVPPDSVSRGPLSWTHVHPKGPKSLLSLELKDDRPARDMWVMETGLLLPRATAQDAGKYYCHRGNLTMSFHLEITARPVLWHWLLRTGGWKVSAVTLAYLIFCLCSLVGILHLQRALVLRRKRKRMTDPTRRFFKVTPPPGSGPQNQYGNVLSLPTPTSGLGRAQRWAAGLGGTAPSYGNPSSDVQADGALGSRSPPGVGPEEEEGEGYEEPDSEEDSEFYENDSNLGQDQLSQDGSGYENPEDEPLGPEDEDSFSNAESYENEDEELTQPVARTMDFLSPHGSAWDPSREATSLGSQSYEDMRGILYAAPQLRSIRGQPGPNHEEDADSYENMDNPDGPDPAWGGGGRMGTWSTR
Kind of test: cell-based or functional assay. Details: unit not given beside the values.

B1: ADCx22 (antibody, human IgG1, kappa, V domains shown)
VH: QVQLVQSGAEVKKPGSSVKVSCKASGYTFTSYWLHWVRQAPGQGLEWIGYINPRNDYTEYNQNFKDKATITADESTNTAYMELSSLRSEDTAFYFCARRDITTFYWGQGTLVTVSS
VL: DIQLTQSPSSLSASVGDRVTMSCKSSQSVLYSANHKNYLAWYQQKPGKAPKLLIYWASTRESGVPSRFSGSGSGTDFTFTISSLQPEDIATYYCHQYLSSWTFGQGTKVEIKR
modifications: PBD drug-linker on heavy chain interchain cysteine Cys220 (EU numbering) = position 219 of SEQ ID NO. 15
In the case of B1, the “EC50, in vitro cytotoxicity (MTS cell viability) on Ramos cells, 4 days” value in the test with CD22 was found to be 0.0133.

B2: ADCx19 (antibody, V domains shown)
VH: QVQLVQPGAEVVKPGASVKLSCKTSGYTFTSNWMHWVKQAPGQGLEWIGEIDPSDSYTNYNQNFQGKAKLTVDKSTSTAYMEVSSLRSDDTAVYYCARGSNPYYYAMDYWGQGTSVTVS
VL: EIVLTQSPAIMSASPGERVTMTCSASSGVNYMHWYQQKPGTSPRRWIYDTSKLASGVPARFSGSGSGTSYSLTISSMEPEDAATYYCHQRGSYTFGGGTKLEIK
modifications: pyrrolobenzodiazepine (PBD) dimer warhead attached to the antibody via a cleavable linker; DAR 2+/-0.3; attachment residues not stated
For the molecule B2, in the test with CD19, the “EC50, in vitro cytotoxicity (MTS cell viability) on Ramos cells, 4 days” value was 0.000239.
